Measurements from patent US20070166384A1, “Methods , composition and preparations for delivery of immune response modifiers” (priority 2004, published 2007).
Values after ≈ are worked out from the molar mass of the structure shown.

Columns and labels:
[1] = Solubility in normal saline and phosphate buffered saline (saturated solutions, 25° C., 7 days, HPLC); format: physicochemical; details: for Solubility Fold Increase: Example 6 over IRM2; for solubility at 7 days: thermodynamic from solid
Description: The solubility of IRM2 and the IRM-polymer complex exemplified in Example 6 was determined in normal saline and phosphate buffered saline (PBS) at pH 7.4. Each compound was added to each medium until saturation had been reached. Vials containing the saturated solutions were capped and placed into a shaking water bath at 25° C. After 7 days the saturated solutions were filtered and analyzed for compound content on an HPLC using a Zorbax Bonus-RP 150×4.6 mm 5 μm particle size column. IRM2 was eluted with a 25:75 ratio of 0.05% trifuoro-acetic acid (TFA) in Acetonitrile to 0.1% TFA in water. Example 6 was eluted with a 10:90 ratio of 0.05% TFA in Acetonitrile to 0.1% TFA in water for three minutes, gradient to a 75:25 ratio of 0.05% TFA in Acetonitrile to 0.1% TFA in water for seven minutes and held at the 75:25 ratio for eight minutes. All HPLC runs were set at a flow rate of 1 mL/min, 20 μL injection volume, and a 254 nm UV detection wavelength. Quantitation was performed against external standards. Results are shown in Table 5 expressed in millimolar (mM) and solubility fold increase of Example 6 over IRM2.

[2] = test system: Peripheral blood mononuclear cells (PBMC); assay: Cytokine induction in an in vitro human blood cell system (IFN-α and TNF-α secreted into culture media); format: cell-based; details: 18 to 24 hours; for Minimum Effective Concentration (µM) IFN-α: lowest tested concentration inducing IFN-α over fixed level (usually 20 pg/mL); for Minimum Effective Concentration (µM) TNF: lowest tested concentration inducing TNF-α over fixed level (usually 40 pg/mL)
Text: An in vitro human blood cell system is used to assess cytokine induction. Activity is based on the measurement of interferon (α) and tumor necrosis factor (α) (IFN-α and TNF-α, respectively) secreted into culture media as described by Testerman et. al. in “Cytokine Induction by the Immunomodulators Imiquimod and S-27609,” Journal of Leukocyte Biology, 58, 365-372 (September, 1995).
Whole blood from healthy human donors is collected by venipuncture into vacutainer tubes or syringes containing EDTA. Peripheral blood mononuclear cells (PBMC) are separated from whole blood by density gradient centrifugation using HISTOPAQUE-1077 (Sigma, St. Louis, Mo.) or Ficoll-Paque Plus (Amersham Biosciences Piscataway, N.J.). Blood is diluted 1:1 with Dulbecco's Phosphate Buffered Saline (DPBS) or Hank's Balanced Salts Solution (HBSS). Alternately, whole blood is placed in Accuspin (Sigma) or LeucoSep (Greiner Bio-One, Inc., Longwood, Fla.) centrifuge frit tubes containing density gradient medium. The PBMC layer is collected and washed twice with DPBS or HBSS and re-suspended at 4×10^6 cells/mL in RPMI complete. The PBMC suspension is added to 96 well flat bottom sterile tissue culture plates containing an equal volume of RPMI complete media containing test compound.
The compounds are solubilized in dimethyl sulfoxide (DMSO). The DMSO concentration should not exceed a final concentration of 1% for addition to the culture wells. The compounds are generally tested at concentrations ranging from 30-0.014 μM. Controls include cell samples with media only, cell samples with DMSO only (no compound), and cell samples with reference compound. […]
Following incubation the plates are centrifuged for 10 minutes at 1000 rpm (approximately 200×g) at 4° C. […] The samples are analyzed for IFN-α by ELISA and for TNF-α by IGEN/BioVeris Assay.
IFN-α concentration is determined with a human multi-subtype calorimetric sandwich ELISA (Catalog Number 41105) from PBL Biomedical Laboratories, Piscataway, N.J. Results are expressed in pg/mL.
The TNF-α concentration is determined by ORIGEN M-Series Immunoassay and read on an IGEN M-8 analyzer from BioVeris Corporation, formerly known as IGEN International, Gaithersburg, Md. […]
Analysis of the data has two steps. First, the greater of the mean DMSO (DMSO control wells) or the experimental background (usually 20 pg/mL for IFN-α and 40 pg/mL for TNF-α) is subtracted from each reading. If any negative values result from background subtraction, the reading is reported as
“*”, and is noted as not reliably detectable. […] The adjustment ratio is the area of the reference compound in the new experiment divided by the expected area of the reference compound based on the past 61 experiments (unadjusted readings). […]

[3] = Liberation of IRM1 from IRM-polymer complex in buffered saline at 37° C., measured by HPLC; format: physicochemical; details: 0.1 mg/ml
Description: Samples were placed in a thermostated autosampler with the temperature controlled at 37° C. Samples were injected periodically over the course of the experiment and the % of IRM1 liberated was measured by an HPLC system equipped with a thermostatted autosampler set at 37° C. and a Zorbax SB C18, (3.0×150 mm), 3.5 μm particle size column with a column temperature of 40° C. Samples were eluted with a mobile phase of 1% acetic acid in water and methanol. The mobile phase was run at a ratio of 55:45 of 1% acetic acid in water to methanol for five minutes, gradient to 5:95 for ten minutes, held at 5:95 for five minutes, gradient to 55:45 in less than a minute, and held at 55:45 for ten minutes. All HPLC runs were set at a flow rate of 0.5 mL/min, 20 μL injection volume, and a 254 nm UV detection wavelength. The % IRM1 was determined by normalizing the IRM1 peak area by the total peak area of the chromatogram.

[4] = normal saline, saline or isotonic, Saline, 25° C.

For `CCCCc1nc2c(N)nc3ccccc3c2n1CCCCNC(=O)CCOCCOCCOCCOCCOCCOCCOCCOCCOCCOCCOCCOCCOCCOCCOCCOCCOCCOCCOCCOCCOCCOCCOCCOCCOCCOCCOCCOCCOCCOCCOCCOCCOCCOCCOCCOCCOCCOCCOCCOCCOCCOCCOCCOCCOCCOC` [Example 6], the “Solubility Fold Increase” value ([1]; Phosphate Buffered Saline, pH 7.4) was 75.97, the “Solubility Fold Increase” value ([1]; Saline) was 142.50 and the solubility at 7 days ([1]; aqueous buffer, Phosphate Buffered Saline, pH 7.4, 25° C.) was 5590 µM (≈ 13300 µg/mL). For the same molecule, the solubility at 7 days [1, 4] was 5970 µM (≈ 14200 µg/mL), the Minimum Effective Concentration (µM) IFN-α [2] was 30 µM and the Minimum Effective Concentration (µM) TNF [2] was over 30 µM.
Molecule `CCCCc1nc2c(N)nc3ccccc3c2n1CCCCNC(C)=O` [IRM 2, N-[4-(4-Amino-2-butyl-1H-imidazo[4,5-c]quinolin-1-yl)butyl]acetamide, reference compound] has a solubility at 7 days [1, 4] of 40 µM (≈ 14.1 µg/mL) and a solubility at 7 days ([1]; phosphate buffered saline (PBS), aqueous buffer, Phosphate Buffered Saline, pH 7.4, 25° C.) of 70 µM (≈ 24.7 µg/mL).
In the case of `CCOCc1nc2c(NC(=O)CCOCCOCCOCCOCCOCCOCCOCCOCCOCCOCCOCCOCCOCCOCCOCCOCCOCCOCCOCCOCCOCCOCCOCCOCCOCCOCCOCCOCCOCCOCCOCCOCCOCCOCCOCCOCCOCCOCCOCCOCCOCCOCCOCCOCCOCCOC)nc3ccccc3c2n1CC(C)(C)O` [Example 7], the “% IRM1” value ([3]; Citrate Buffered Saline, pH 4, 37° C., time 0 hr) is reported as 2.9%, the “% IRM1” value ([3]; Citrate Buffered Saline, pH 4, 37° C., time 6 hr) is reported as 5.7% and the “% IRM1” value ([3]; Citrate Buffered Saline, pH 4, 37° C., time 10 hr) is reported as 7.4%. For the same molecule, the “% IRM1” value ([3]; Citrate Buffered Saline, pH 4, 37° C., time 13 hr) was 9.4%, the “% IRM1” value ([3]; Citrate Buffered Saline, pH 4, 37° C., time 17 hr) was 10.6% and the “% IRM1” value ([3]; Citrate Buffered Saline, pH 4, 37° C., time 20 hr) was 12.1%. The “% IRM1” value ([3]; Citrate Buffered Saline, pH 4, 37° C., time 23 hr) was 13.0%, the “% IRM1” value ([3]; Citrate Buffered Saline, pH 4, 37° C., time 28 hr) was 16.5% and the “% IRM1” value ([3]; Citrate Buffered Saline, pH 4, 37° C., time 30 hr) was 17.1%. The “% IRM1” value ([3]; Phosphate Buffered Saline, pH 7.4, 37° C., time 1 hr) was 1.3%, the “% IRM1” value ([3]; Phosphate Buffered Saline, pH 7.4, 37° C., time 5 hr) was 1.5% and the “% IRM1” value ([3]; Phosphate Buffered Saline, pH 7.4, 37° C., time 10 hr) was 1.7%. The “% IRM1” value ([3]; Phosphate Buffered Saline, pH 7.4, 37° C., time 13 hr) was 1.8%, the “% IRM1” value ([3]; Phosphate Buffered Saline, pH 7.4, 37° C., time 18 hr) was 1.9% and the “% IRM1” value ([3]; Phosphate Buffered Saline, pH 7.4, 37° C., time 20 hr) was 2.1%. The “% IRM1” value ([3]; Phosphate Buffered Saline, pH 7.4, 37° C., time 23 hr) was 2.1%, the “% IRM1” value ([3]; Phosphate Buffered Saline, pH 7.4, 37° C., time 27 hr) was 2.3% and the “% IRM1” value ([3]; Phosphate Buffered Saline, pH 7.4, 37° C., time 30 hr) was 2.4%. For the same molecule, the Minimum Effective Concentration (µM) IFN-α [2] was 3.33 µM and the Minimum Effective Concentration (µM) TNF [2] was 30 µM.
